According to patent US20240417437A1, “Linker Polypeptides” (Trutino Biosciences Inc., priority 2021, published 2024):
Numbering of substitutions follows the chain as printed. Names may count otherwise. Blank lines part the entries; values can stand above or below the binder they belong to. Where no end group is shown, it is not given here. The star is where a group is joined. EDANS = O=S(=O)(O)c1cccc2c(NCCN*)cccc12

Experiments:
[1] = molecular target: biotin-labelled collagen IV (Prospec); assay: EDANS peptide (20 µM) on biotin-collagen IV-coated streptavidin magnetic beads, fluorescence Ex 340/Em 490, pH 7.5
[2] = molecular target: collagen cross-linked to agarose (Sigma); assay: collagen-agarose pulldown, anti-mouse IL-2 immunoblot, band intensity of the collagen-bound lane (Input (2%) band: 16707)
[3] = molecular target: collagen cross-linked to agarose (Sigma); assay: collagen-agarose pulldown, anti-mouse IL-2 immunoblot, band quantitation
[4] = molecular target: collagen cross-linked to agarose (Sigma); assay: pulldown with collagen-agarose, immunoblot quantified with iBright imaging system
[5] = molecular target: collagen cross-linked to agarose (Sigma); assay: collagen-agarose pulldown, anti-mouse IL-2 immunoblot, band intensity of the collagen-bound lane (Input (2%) band: 15267)
[6] = molecular target: collagen cross-linked to agarose (Sigma); assay: pulldown with collagen-agarose, immunoblot quantified with iBright imaging system; reference Construct B

RFU [1]: 4560 RFU
Binder: KLWVLPKGPLGVRG-{EDANS} [Peptide 14 (…-*, next generation MMP cleavable linker with collagen IV targeting sequence)]

RFU [1]: 490 RFU
Binder: GGGSGLHERHLNNN-{EDANS} [Peptide 15 (…-*, linker peptide with collagen I targeting sequence)]

Second part, the binder before the results:

Binder: GGGSGGGGPLGVRG-{EDANS} [P1]
RFU [1]: 297 RFU

B1: Construct B - no TME: mIL2-2x(SG4)-MMPcs1-2x(G4S)-mIL2Ralpha(1-215)-mIgG1Fc (Fc fusion)
chain: APTSSSTSSSTAEAQQQQQQQQQQQQHLEQLLMDLQELLSRMENYRNLKLPRMLTFKFYLPKQATELKDLQCLEDELGPLRHVLDLTQSKSFQLEDAENFISNIRVTVVKLKGSDNTFECQFDDESATVVDFLRRWIAFCQSIISTSPQSGGGGSGGGGGPLGVRGGGGGSGGGGSELCLYDPPEVPNATFKALSYKNGTILNCECKRGFRRLKELVYMRCLGNSWSSNCQCTSNSHDKSRKQVTAQLEHQKEQQTTTDMQKPTQSMHQENLTGHCREPPPWKHEDSKRIYHFVEGQSVHYECIPGYKALQRGPAISICKMKCGKTGWTQPQLTCVDEREHHRFLASEESQGSRNSSPESETSCPITTTDFPQPTETTAMTETFVLTMEYKGCKPCICTVPEVSSVFIFPPKPKDVLTITLTPKVTCVVVDISKDDPEVQFSWFVDDVEVHTAQTQPREEQFNSTFRSVSELPIMHQDWLNGKEFKCRVNSAAFPAPIEKTISKTKGRPKAPQVYTIPPPKEQMAKDKVSLTCMITDFFPEDITVEWQWNGQPAENYKNTQPIMDTDGSYFVYSKLNVQKSNWEAGNTFTCSVLHEGLHNHHTEKSLSHSPGK
Bound [2]: 2310 | Bound (% input) [3]: 0.3 % of input

B2: Construct GG (collagen IV): mIL2-SGG-KLWVLPK(SEQ ID NO: 200)-MMPcs1-2x(G4S)-mIL2Ra(1-215)-muIgG1Fc (Fc fusion)
chain: B1 chain with G153K, G154L, S155W, G156V, G157L, G158P, G159K
fraction bound (of input) [4]: < 1 % of input | Bound [5]: 5190 | fold of bound fraction over Construct B [6]: 2.5 fold | Bound (% input) [3]: 0.7 % of input
